# Assays:
# [1] = target: T1, Sp1 (rhSp1) (UniProt P08047 1-785); assay: competition
# [2] = target: T1, Sp1 (rhSp1); assay: EMSA
# T1 sequence (P08047 whole entry): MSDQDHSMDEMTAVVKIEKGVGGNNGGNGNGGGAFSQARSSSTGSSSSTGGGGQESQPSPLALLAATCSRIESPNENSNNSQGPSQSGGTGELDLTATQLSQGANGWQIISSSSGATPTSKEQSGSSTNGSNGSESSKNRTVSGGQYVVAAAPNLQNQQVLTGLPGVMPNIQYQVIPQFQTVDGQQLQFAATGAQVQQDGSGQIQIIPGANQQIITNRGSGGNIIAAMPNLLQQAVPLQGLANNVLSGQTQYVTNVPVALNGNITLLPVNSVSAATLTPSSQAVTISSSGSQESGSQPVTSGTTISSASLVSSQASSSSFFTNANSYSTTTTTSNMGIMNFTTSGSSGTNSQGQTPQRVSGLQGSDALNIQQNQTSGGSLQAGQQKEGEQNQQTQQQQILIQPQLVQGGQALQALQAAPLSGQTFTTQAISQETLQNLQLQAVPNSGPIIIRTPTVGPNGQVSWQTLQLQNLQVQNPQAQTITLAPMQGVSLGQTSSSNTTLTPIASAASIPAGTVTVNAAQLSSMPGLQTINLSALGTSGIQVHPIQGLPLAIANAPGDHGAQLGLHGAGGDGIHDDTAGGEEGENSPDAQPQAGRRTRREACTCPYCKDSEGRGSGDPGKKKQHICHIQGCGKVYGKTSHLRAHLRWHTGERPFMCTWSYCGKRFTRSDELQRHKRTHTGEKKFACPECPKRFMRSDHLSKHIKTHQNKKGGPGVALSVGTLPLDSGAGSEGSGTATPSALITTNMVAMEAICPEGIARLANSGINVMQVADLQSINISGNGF
Binder,binding result [1],binding result [2]
DUT Sp1Δ (dsDNA) DNA 1: GTTCGGTGGGTGGTTCGGGGCTGGCTTG DNA 2: CAAGCCAGCCCCGAACCACCCACCGAAC,no binding,
DUT Sp1 (-64 to -91) (dsDNA) DNA 1: GGGCGGTGGGTGGGGCGGGGCTGGCGGG DNA 2: CCCGCCAGCCCCGCCCCACCCACCGCCC,,binds

# Source: publication PMC2615606
